Among the data in PMC4207802 are EC50 of intracellular cAMP accumulation in transfected COS-7 cells, rhTSH dose-response and intracellular cAMP accumulation in transfected COS-7 cells, rhTSH 0–100 mU/ml; value values, retold here.

The target in assay [1] is T1 – FSHR-HinR/TSHR (human) (UniProt P16473).
For assay [2], the target named is T3 – TSHR-LRR11/FSHR (human) (UniProt P16473).
In assay [3] the target is T4 – TSHR-LRR10/FSHR (human) (UniProt P16473).

As for “recombinant human thyrotropin (rhTSH) (from UniProt P01215 25-116; P01222 21-132) (ligand)”, the EC50 of intracellular cAMP accumulation in transfected COS-7 cells, rhTSH dose-response came out at 0.4 mU/ml in assay [1], 3.8 mU/ml in assay [2] and 11.6 mU/ml in assay [3]. For the same substance, the intracellular cAMP accumulation in transfected COS-7 cells, rhTSH 0–100 mU/ml; value at 100 mU/ml in assay [1] is 57.2 nM; in assay [2], 32.9 nM; in assay [3], 36.6 nM.
